Laboratory results taken from patent US20240358755A1 (IMMATICS BIOTECHNOLOGIES, published 2024).

B1: NQKGLISL (peptide)
peptide: NQKGLISL
B2: VANDRLSFL (peptide)
peptide: VANDRLSFL
B3: YAFRNQTL (peptide)
peptide: YAFRNQTL
B4: LYIFTTRPF (peptide)
peptide: LYIFTTRPF
B5: VQSGVPSRF (peptide)
peptide: VQSGVPSRF
B6: SFSLLLPYL (peptide)
peptide: SFSLLLPYL
B7: GRFWLPFNF (peptide)
peptide: GRFWLPFNF
B8: LYQTTIELF (peptide)
peptide: LYQTTIELF
B9: LHLNPGLSF (peptide)
peptide: LHLNPGLSF
B10: IYIPTNSIYKF (peptide)
peptide: IYIPTNSIYKF
B11: VFIPSVINL (peptide)
peptide: VFIPSVINL
B12: AYIPFPPLI (peptide)
peptide: AYIPFPPLI
B13: IFDLSDPRF (peptide)
peptide: IFDLSDPRF
B14: KYPTIICGF (peptide)
peptide: KYPTIICGF
B15: IYFHLNNWTI (peptide)
peptide: IYFHLNNWTI
B16: SHSLPAFTL (peptide)
peptide: SHSLPAFTL
B17: FTQKINSTW (peptide)
peptide: FTQKINSTW
B18: RADEEQASF (peptide)
peptide: RADEEQASF
B19: NSENLLVY (peptide)
peptide: NSENLLVY
B20: YSSEIWDLY (peptide)
peptide: YSSEIWDLY
B21: NVSFEVSLLY (peptide)
peptide: NVSFEVSLLY
B22: LIDSLLLLL (peptide)
peptide: LIDSLLLLL
B23: VSPDEVLALW (peptide)
peptide: VSPDEVLALW
B24: SADTAELLL (peptide)
peptide: SADTAELLL
B25: FSEIFQDFL (peptide)
peptide: FSEIFQDFL
B26: TVDKGELLY (peptide)
peptide: TVDKGELLY
B27: NSDLFYLLL (peptide)
peptide: NSDLFYLLL
B28: LNFSDVFLY (peptide)
peptide: LNFSDVFLY
B29: EAAPNIMHY (peptide)
peptide: EAAPNIMHY
B30: TILAKQNVL (peptide)
peptide: TILAKQNVL
B31: ILRTVLPSL (peptide)
peptide: ILRTVLPSL
B32: TAMTTLMAF (peptide)
peptide: TAMTTLMAF

Target: T1, HLA-B*08:01 (human)
T1 construct: Peptide-receptive MHC class I monomer in the UV-ligand exchange assay
Assay: UV peptide exchange, anti-b2m ELISA; exchange yield grade

Binder	binding result
B1	binds
B2	binds
B3	binds

Target: T2, HLA-A*24:02 (human)
T2 construct: Peptide-receptive MHC class I monomer in the UV-ligand exchange assay
Assay: as above

Binder	binding result
B4	binds
B5	binds
B6	binds
B7	binds
B8	binds
B9	binds
B10	binds
B11	binds
B12	binds
B13	binds
B14	binds
B15	binds
B16	binds

Target: T3, HLA-A*01:01 (human)
T3 construct: Peptide-receptive MHC class I monomer: a UV-sensitive peptide (not specified) is cleaved and exchanged with the test peptide
Assay: as above

Binder	peptide exchange yield [%]
B17	20 to 50
B18	20 to 50
B19	50 to 75
B20	≥ 75
B21	≥ 75
B22	50 to 75
B23	20 to 50
B24	20 to 50
B25	50 to 75
B26	≥ 75
B27	≥ 75
B28	20 to 50
B29	20 to 50

Target: T1, HLA-B*08:01
Assay: allele assigned to HLA ligand eluted from tissue (IP, LC-MS)

Binder	binding result
B30	binds
B31	binds
B32	binds
